Reference: US20240336672A1

Assays:
Conditions in all cases: remark: other sources report otherwise
[1] = target: T1, SARS-CoV-2 Spike ectodomain (tri-S), Wuhan (SARS-CoV-2), P0DTC2; assay: tri-S/ACE2 blocking ELISA
[2] = target: T1, SARS-CoV-2 Spike ectodomain (tri-S), …; assay: competition ELISA vs bio-Cv2.1169
[3] = target: T1, SARS-CoV-2 Spike ectodomain (tri-S), …; assay: competition ELISA vs bio-Cv2.3194
[4] = target: T1, SARS-CoV-2 Spike ectodomain (tri-S), …; assay: SPR (Biacore), IgG immobilized, viral protein as analyte
[5] = target: T1, SARS-CoV-2 Spike ectodomain (tri-S), …; assay: competition ELISA, biotinylated tri-S to immobilized ACE2 ectodomain
[6] = target: T1, SARS-CoV-2 Spike ectodomain (tri-S), …; assay: SPR (Biacore), antibody coupled to CM5 chip, viral protein as analyte
[7] = target: T1, SARS-CoV-2 Spike ectodomain (tri-S), …; assay: biotinylated tri-S on immobilised ACE2, competition ELISA

B1: Cv2.3194 (recombinant human IgG1) (antibody)
heavy: EVQLVESGGGLIQPGGSLRLSCAASGITVTSNYMSWVRQAPGKGLEWVSVIYPGGSTFYADSVKGRFTISRDNSKNTLYLQMNSLRAEDTAVYYCARDLVVYGMDVWGQGTTVTVSSASTKGPSVFPLAPSSKSTSGGTAALGCLVKDYFPEPVTVSWNSGALTSGVHTFPAVLQSSGLYSLSSVVTVPSSSLGTQTYICNVNHKPSNTKVDKKVEPKSCDKTHTCPPCPAPELLGGPSVFLFPPKPKDTLMISRTPEVTCVVVDVSHEDPEVKFNWYVDGVEVHNAKTKPREEQYNSTYRVVSVLTVLHQDWLNGKEYKCKVSNKALPAPIEKTISKAKQPREPQVYTLPPSRDELTKNQVSLTCLVKGFYPSDIAVEWESNGQPENNYKTTPPVLDSDGSFFLYSKLTVDKSRWQQGNVFSCSVMHEALHNHYTQKSLSLSPGK
light: EIVLTQSPGTLSLSPGERATLSCRASQSVSSSYLAWYQQKPGQAPRLLIYGASSRATGIPGRFSGSGSGTDFTLTISRLEPEDFAIYYCQQGVTFGGGTKVEIKRTVAAPSVFIFPPSDEQLKSGTASVVCLLNNFYPREAKVQWKVDNALQSGNSQESVTEQDSKDSTYSLSSTLTLSKADYEKHKVYACEVTHQGLSSPVTKSFNRGEC
With B1 the % binding inhibition [1] was 97%, the % inhibition (competition) [2] was 81 and the % inhibition (competition) [3] was 86. For the same binder, the Kd [4] was 0.459 nM, the koff [4] was 0.00112 s⁻¹ and the kon [4] was 2.45e+06 M⁻¹ s⁻¹. It also gave an IC50 [5] of 0.093 µg/mL, an IC90 [5] of 0.212 µg/mL and a Kd [6] of under 0.001 nM. It also gave an EC50 [7] of 0.31 µg/mL.
